Values quoted from earlier work as cited in PMC7550760.

Molecular target: His84 (UniProt position 104, ACRVNHVTLSQ)
Settings: monomeric native-like protein implied; not stated

Substance | pKa
beta2-microglobulin (wild type, full length) (Homo sapiens) | 4.1
beta2-microglobulin deltaN6 variant (Homo sapiens; del1-6) | 5.9
